The target of assay [1] is T1, recombinant CIT1 (without the mitochondrial targeting signal, C-terminal 6x His tag) (S. cerevisiae, UniProt P00890 38-479).
T1 construct: By the primers and the NdeI/XhoI sites of pET21b the chain should begin with an added Met and carry LE before the His6; also called recombinant yeast CIT1; pET-cit1; source: E. coli BL21 (DE3), pET21b, purified (Ni-NTA His SpinTrap columns)
T1 sequence (looked up): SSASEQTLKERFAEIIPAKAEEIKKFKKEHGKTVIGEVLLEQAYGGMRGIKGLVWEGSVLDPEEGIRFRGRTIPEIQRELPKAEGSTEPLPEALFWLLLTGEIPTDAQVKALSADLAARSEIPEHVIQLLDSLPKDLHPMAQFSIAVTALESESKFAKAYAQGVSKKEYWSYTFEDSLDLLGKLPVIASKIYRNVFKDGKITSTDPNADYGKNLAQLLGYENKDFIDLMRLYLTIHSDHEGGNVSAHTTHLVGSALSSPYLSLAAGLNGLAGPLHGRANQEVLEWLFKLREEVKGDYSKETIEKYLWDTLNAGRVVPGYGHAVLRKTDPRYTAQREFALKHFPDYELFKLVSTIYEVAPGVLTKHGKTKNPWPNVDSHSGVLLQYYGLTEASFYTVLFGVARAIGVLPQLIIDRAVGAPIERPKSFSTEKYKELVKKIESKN
The assay can be described thus: MST; fluorescently labeled MDH1 as the target, CIT1 as the ligand (two-fold serial dilution of 80 µM, 16 concentrations); Monolith NT.115, room temperature; 50 mM Tris, 150 mM NaCl, 10 mM MgCl2, 5 mM DTT, 0.05% Tween-20; pH 6.0. Particulars: both partners purified.

Assay [2] has as its target T1, recombinant CIT1 (without the …). The assay can be described thus: MST; fluorescently labeled MDH1 as the target, CIT1 as the ligand (two-fold serial dilution of 80 µM, 16 concentrations); Monolith NT.115, room temperature; 50 mM Tris, 150 mM NaCl, 10 mM MgCl2, 5 mM DTT, 0.05% Tween-20; pH 6.4. The conditions noted are these: both partners purified.
The target is the same in assay [3]. The assay is described as follows: MST; fluorescently labeled MDH1 as the target, CIT1 as the ligand (two-fold serial dilution of 80 µM, 16 concentrations); Monolith NT.115, room temperature; 50 mM Tris, 150 mM NaCl, 10 mM MgCl2, 5 mM DTT, 0.05% Tween-20; pH 7.2. The conditions noted are these: both partners purified.
Assay [4] has as its target T2, recombinant MDH1 (without the mitochondrial targeting signal, C-terminal 6x His tag), fluorescently labeled (S. cerevisiae, UniProt P17505 18-334, fluorescent label (Protein Labeling Kit RED-NHS 2nd Generation)).
T2 chain: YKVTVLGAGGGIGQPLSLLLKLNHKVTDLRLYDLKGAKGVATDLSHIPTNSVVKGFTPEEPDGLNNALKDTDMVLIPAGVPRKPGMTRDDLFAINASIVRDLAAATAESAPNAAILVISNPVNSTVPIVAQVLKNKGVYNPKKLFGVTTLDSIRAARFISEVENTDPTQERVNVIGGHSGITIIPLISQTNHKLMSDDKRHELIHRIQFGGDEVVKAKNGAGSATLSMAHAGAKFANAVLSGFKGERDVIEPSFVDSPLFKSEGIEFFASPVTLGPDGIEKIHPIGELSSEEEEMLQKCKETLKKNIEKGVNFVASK
The assay is described as follows: MST; control (no metabolite).

Assay [5] addresses T2, recombinant MDH1 (without the …). The assay can be described thus: MST; pH 6.8.
The target is the same in assay [6]. The assay is described as follows: MST; 10 mM fumarate.
For assay [7] the target is unchanged. The assay is described as follows: MST; 10 mM malate.

B1: recombinant MDH1 (without the mitochondrial targeting signal, C-terminal 6x His tag), fluorescently labeled (enzyme, S. cerevisiae, UniProt P17505 18-334, looked up)
chain: YKVTVLGAGGGIGQPLSLLLKLNHKVTDLRLYDLKGAKGVATDLSHIPTNSVVKGFTPEEPDGLNNALKDTDMVLIPAGVPRKPGMTRDDLFAINASIVRDLAAATAESAPNAAILVISNPVNSTVPIVAQVLKNKGVYNPKKLFGVTTLDSIRAARFISEVENTDPTQERVNVIGGHSGITIIPLISQTNHKLMSDDKRHELIHRIQFGGDEVVKAKNGAGSATLSMAHAGAKFANAVLSGFKGERDVIEPSFVDSPLFKSEGIEFFASPVTLGPDGIEKIHPIGELSSEEEEMLQKCKETLKKNIEKGVNFVASK
modifications: fluorescent label (Protein Labeling Kit RED-NHS 2nd Generation)
notes: By the primers and the NdeI/XhoI sites of pET21b the chain should begin with an added Met and carry LE before the His6; also called recombinant yeast MDH1; labeled MDH1; source: E. coli BL21 (DE3), pET21b, purified (Ni-NTA His SpinTrap columns)
As to B1, the figures for the Kd in assay [1], in assay [2] and in assay [3] were 33 nM, 223 nM and 3480 nM, respectively.

B2: recombinant CIT1 (without the mitochondrial targeting signal, C-terminal 6x His tag) (enzyme)
chain: SSASEQTLKERFAEIIPAKAEEIKKFKKEHGKTVIGEVLLEQAYGGMRGIKGLVWEGSVLDPEEGIRFRGRTIPEIQRELPKAEGSTEPLPEALFWLLLTGEIPTDAQVKALSADLAARSEIPEHVIQLLDSLPKDLHPMAQFSIAVTALESESKFAKAYAQGVSKKEYWSYTFEDSLDLLGKLPVIASKIYRNVFKDGKITSTDPNADYGKNLAQLLGYENKDFIDLMRLYLTIHSDHEGGNVSAHTTHLVGSALSSPYLSLAAGLNGLAGPLHGRANQEVLEWLFKLREEVKGDYSKETIEKYLWDTLNAGRVVPGYGHAVLRKTDPRYTAQREFALKHFPDYELFKLVSTIYEVAPGVLTKHGKTKNPWPNVDSHSGVLLQYYGLTEASFYTVLFGVARAIGVLPQLIIDRAVGAPIERPKSFSTEKYKELVKKIESKN
As for B2, the dissociation constant Kd is 6070 nM in assay [4], 2720 nM in assay [5], 288 nM in assay [6] and 367 nM in assay [7].

As a reminder, the Kd is the equilibrium constant for the complex coming apart.

Values taken from article PMC13345634, “Dynamic assembly of malate dehydrogenase–citrate synthase multienzyme complex in the mitochondria” (eLife, 2026).
